The values that follow are results of earlier work, collected in PMC11741591.

The target in this data set is reelin receptors (ApoER2/VLDLR) (Homo sapiens) (UniProt Q14114).
Chain of UniProt Q14114 (Q14114 33-826): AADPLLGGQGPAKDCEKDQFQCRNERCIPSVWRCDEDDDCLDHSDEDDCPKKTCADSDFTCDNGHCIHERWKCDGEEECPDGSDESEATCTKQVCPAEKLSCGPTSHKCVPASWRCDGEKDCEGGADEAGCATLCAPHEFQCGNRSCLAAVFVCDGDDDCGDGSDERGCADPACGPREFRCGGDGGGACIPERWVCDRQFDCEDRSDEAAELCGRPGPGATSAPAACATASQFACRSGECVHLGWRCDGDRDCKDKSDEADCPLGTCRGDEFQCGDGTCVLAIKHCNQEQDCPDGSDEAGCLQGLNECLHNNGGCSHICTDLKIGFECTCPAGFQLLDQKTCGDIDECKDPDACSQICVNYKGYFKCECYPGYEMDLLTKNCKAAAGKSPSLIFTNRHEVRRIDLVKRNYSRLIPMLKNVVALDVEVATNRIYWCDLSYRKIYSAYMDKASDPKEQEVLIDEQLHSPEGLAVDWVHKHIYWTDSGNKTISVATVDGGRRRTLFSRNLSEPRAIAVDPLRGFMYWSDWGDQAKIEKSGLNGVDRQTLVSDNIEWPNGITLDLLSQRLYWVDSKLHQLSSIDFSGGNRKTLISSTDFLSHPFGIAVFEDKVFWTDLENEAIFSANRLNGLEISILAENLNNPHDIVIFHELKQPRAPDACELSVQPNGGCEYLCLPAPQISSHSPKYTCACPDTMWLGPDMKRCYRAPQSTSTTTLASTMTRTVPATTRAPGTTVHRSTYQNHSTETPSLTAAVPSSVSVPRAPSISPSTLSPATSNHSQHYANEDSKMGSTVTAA

Chain of reelin (P78509 26-3460): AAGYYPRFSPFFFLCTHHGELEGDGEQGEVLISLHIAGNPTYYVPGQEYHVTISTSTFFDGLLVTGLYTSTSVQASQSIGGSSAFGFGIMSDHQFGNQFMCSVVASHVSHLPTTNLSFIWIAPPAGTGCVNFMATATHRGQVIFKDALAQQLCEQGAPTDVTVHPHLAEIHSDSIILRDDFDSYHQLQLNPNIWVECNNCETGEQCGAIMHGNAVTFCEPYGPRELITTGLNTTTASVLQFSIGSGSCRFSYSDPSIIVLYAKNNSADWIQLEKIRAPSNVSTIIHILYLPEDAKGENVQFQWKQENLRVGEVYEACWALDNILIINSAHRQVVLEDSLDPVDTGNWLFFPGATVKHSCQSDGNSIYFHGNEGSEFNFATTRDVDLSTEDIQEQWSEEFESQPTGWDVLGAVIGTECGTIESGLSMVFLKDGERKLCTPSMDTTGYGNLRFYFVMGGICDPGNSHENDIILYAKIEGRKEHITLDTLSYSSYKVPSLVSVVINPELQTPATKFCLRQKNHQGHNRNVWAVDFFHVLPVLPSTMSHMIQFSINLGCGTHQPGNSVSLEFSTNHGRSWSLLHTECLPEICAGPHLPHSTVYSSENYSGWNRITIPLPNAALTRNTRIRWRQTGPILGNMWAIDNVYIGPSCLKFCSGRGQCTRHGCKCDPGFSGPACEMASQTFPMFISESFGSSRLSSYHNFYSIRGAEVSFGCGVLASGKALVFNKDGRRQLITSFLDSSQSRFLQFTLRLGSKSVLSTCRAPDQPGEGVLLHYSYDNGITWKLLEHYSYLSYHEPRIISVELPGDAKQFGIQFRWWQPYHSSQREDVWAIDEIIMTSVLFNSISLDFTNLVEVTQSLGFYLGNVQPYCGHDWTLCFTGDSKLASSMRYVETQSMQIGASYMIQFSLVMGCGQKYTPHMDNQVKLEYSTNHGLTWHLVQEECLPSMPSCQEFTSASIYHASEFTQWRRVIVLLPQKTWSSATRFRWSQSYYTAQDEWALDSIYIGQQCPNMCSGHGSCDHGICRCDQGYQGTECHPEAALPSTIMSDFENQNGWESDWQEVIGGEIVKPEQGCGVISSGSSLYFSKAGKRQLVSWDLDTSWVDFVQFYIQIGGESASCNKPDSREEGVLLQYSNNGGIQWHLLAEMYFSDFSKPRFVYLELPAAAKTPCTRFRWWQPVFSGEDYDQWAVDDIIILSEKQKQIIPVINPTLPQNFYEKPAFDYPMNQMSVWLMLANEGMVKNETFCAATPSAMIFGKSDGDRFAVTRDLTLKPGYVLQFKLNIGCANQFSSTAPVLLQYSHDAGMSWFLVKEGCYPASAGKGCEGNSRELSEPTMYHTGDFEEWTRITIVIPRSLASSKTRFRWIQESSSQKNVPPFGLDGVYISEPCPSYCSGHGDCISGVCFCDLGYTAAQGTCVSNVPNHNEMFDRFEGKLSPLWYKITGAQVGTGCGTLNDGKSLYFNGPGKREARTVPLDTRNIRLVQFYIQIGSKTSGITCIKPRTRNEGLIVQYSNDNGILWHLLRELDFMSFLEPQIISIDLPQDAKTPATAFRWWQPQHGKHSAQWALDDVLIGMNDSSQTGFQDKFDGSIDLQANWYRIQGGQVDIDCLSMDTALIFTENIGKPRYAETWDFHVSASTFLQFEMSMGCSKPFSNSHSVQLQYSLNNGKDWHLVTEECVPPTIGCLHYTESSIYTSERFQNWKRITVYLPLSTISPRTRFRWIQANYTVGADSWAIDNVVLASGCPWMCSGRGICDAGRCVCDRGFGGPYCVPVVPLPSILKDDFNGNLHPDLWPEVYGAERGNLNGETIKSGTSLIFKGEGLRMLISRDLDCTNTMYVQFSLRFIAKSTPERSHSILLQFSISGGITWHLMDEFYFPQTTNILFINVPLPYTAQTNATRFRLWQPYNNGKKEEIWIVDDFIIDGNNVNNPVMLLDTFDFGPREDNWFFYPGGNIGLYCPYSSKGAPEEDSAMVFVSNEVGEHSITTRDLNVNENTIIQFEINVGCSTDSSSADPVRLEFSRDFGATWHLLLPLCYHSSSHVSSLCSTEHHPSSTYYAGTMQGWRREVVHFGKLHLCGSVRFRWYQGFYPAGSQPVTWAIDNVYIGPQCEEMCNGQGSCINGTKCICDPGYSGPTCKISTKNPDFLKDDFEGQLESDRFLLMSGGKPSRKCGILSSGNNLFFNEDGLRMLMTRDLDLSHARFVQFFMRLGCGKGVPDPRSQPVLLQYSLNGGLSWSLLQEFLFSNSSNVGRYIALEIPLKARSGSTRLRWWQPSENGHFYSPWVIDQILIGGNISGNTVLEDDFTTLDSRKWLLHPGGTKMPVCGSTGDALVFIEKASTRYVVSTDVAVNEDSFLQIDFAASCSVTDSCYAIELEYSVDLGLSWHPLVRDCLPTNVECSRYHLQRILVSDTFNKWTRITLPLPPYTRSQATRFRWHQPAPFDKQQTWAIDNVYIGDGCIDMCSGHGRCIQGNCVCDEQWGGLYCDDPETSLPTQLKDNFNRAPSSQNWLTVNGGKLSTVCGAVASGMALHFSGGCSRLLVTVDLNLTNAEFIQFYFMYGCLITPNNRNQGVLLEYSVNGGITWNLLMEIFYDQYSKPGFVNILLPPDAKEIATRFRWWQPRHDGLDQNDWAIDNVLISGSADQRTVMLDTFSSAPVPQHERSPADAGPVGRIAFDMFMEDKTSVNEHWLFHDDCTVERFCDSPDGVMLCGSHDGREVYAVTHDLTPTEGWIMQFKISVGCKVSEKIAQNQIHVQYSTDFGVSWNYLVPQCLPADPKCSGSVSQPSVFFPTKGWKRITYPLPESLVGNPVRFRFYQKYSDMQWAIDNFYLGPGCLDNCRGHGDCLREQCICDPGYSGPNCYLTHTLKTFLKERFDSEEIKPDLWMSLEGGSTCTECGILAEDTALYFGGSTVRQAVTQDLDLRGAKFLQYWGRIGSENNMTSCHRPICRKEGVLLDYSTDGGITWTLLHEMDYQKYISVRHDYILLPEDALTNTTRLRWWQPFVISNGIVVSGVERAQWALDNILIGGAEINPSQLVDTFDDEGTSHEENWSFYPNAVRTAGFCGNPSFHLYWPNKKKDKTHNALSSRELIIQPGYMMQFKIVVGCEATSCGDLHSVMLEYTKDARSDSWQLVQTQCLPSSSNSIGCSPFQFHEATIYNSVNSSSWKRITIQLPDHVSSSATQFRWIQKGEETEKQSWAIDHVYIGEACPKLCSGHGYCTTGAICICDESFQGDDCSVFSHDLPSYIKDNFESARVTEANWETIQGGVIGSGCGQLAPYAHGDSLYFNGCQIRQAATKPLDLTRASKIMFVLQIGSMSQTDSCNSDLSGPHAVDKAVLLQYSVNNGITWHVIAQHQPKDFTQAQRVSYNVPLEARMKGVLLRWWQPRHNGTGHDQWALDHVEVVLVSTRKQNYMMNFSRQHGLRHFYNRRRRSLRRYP

Consider reelin (from UniProt P78509), for which the equilibrium dissociation constant (Kd) was 0.5 nM.
